To fix the notation:
B1: Twister Ribozyme (parent)
chain: AACACUGCCAAUGCCGGUCCCAAGCCCGGAUAAAAGUGGAGGGGGCGG

The source of these data is the RNAGym collection of RNA variant scans (doi:10.7554/elife.80360).

In this data set the parent is B1. The experiment in a line: self-cleavage, relative activity (ratio to wild type); higher = more cleavage; co-transcriptional.
Consider AACACUGCCAAUGCCGGUCCCACGCCCGGAUAAAAGUGGCGGGGGCGG, for which the self-cleavage came to 0.0967.

Regarding AACACUGCCAAUGCCGGUCCCACGCCCGGAUAAAAGUGGGGGGGGCGG, the self-cleavage was determined as 0.128.

Turning to AACACUGCCAAUGCCGGUCCCACGCCCGGAUAAAAGUGGUGGGGGCGG, the self-cleavage was 0.146.

In the case of AACACUGCCAAUGCCGGUCCCACGCCCGGAUAAAAGCGGAGGGGGCGG, the self-cleavage amounted to 0.0915.

Consider AACACUGCCAAUGCCGGUCCCACGCCCGGAUAAAAGUGGAGGGGGGGG, for which the self-cleavage was 0.155.

For AACACUGCCAAUGCCGGUCCCACGCCCGGAUAAAAGUGGAGGGGGUGG, the self-cleavage amounted to 0.486.

Take AACACUGCCAAUGCCGGUCCCACGCCCGGAUAAAAGUGGAGGGGGCGG: the self-cleavage was 0.385.

As for AACACUGCCAAUGCCGGUCCCAGGCCCGGAUAAAAGUGGAGGGGGCGG, the self-cleavage was 0.634.

As to AACACUGCCAAUGCCGGUCCCUAGCCCGGAUAAAAGUGGAGGGGGCUG, the self-cleavage came out at 0.67.

As for AACACUGCCAAUGCCGGUCCCACGCCCGGAUAAAAGUGGAGGGGGCGU, the self-cleavage was 0.181.

With AACACUGCCAAUGCCGGUCCCACGCCCGGAUAAAAGUGGAGGGGGCGA, the self-cleavage is 0.14.

Regarding AACACUGCCAAUGCCGGUCCCUAGCCCGGAUAAAAGUGGCGGGGGCGG, the self-cleavage amounted to 0.184.

For AACACUGCCAAUGCCGGUCCCUAGCCCGGAUAAAAGUGGGGGGGGCGG, the self-cleavage was 0.734.

Consider AACACUGCCAAUGCCGGUCCCUAGCCCGGAUAAAAGUGGAGGGGGGGG, for which the self-cleavage was found to be 0.816.

Regarding AACACUGCCAAUGCCGGUCCCUAGCCCGGAUAAAAGUGGAGGGGGAGG, the self-cleavage turned out to be 0.764.

With AACACUGCCAAUGCCGGUCCCACGCCCGAAUAAAAGUGGAGGGGGCGG, the self-cleavage stood at 0.196.

AACACUGCCAAUGCCGGUCCCUAGCCCGCAUAAAAGUGGAGGGGGCGG: the self-cleavage turned out to be 0.604.

For the variant AACACUGCCAAUGCCGGUCCCUAGCCCGAAUAAAAGUGGAGGGGGCGG, the self-cleavage is 0.644.

In the case of AACACUGCCAAUGCCGGUCCCUAGCCCGGAUAAAAGUUGAGGGGGCGG, the self-cleavage was 0.353.

For the variant AACACUGCCAAUGCCGGUCCCUAGCCCGGAUAAAAGUAGAGGGGGCGG, the self-cleavage stood at 0.843.

AACACUGCCAAUGCCGGUCCCAGGCACGGAUAAAAGUGGAGGGGGCGG: the self-cleavage is 0.0747.

Take AACACUGCCAAUGCCGGUCCCAGGCCCGGAUAAGAGUGGAGGGGGCGG: the self-cleavage worked out at 0.112.

Consider AACACUGCCAAUGCCGGUCCCAGGCCCGGAUAACAGUGGAGGGGGCGG, for which the self-cleavage was 0.0596.

On to AACACUGCCAAUGCCGGUCCCAGGCCGGGAUAAAAGUGGAGGGGGCGG, for which the self-cleavage was 0.0997.

For AACACUGCCAAUGCCGGUCCCACUCCCGGAUAAAAGUGGAGGGGGCGG, the self-cleavage was found to be 0.0714.

For AACACUGCCAAUGCCGGUCCCACACCCGGAUAAAAGUGGAGGGGGCGG, the self-cleavage is 0.107.

AACACUGCCAAUGCCGGUCCCACGCCCGGAUAAAAGUUGAGGGGGCGG: the self-cleavage worked out at 0.107.

As for AACACUGCCAAUGCCGGUCCCACGCCCGGAUAAAAGUAGAGGGGGCGG, the self-cleavage worked out at 0.131.

As for AACACUGCCAAUGCCGGUCCCUAGCCCGGAUCAAAGUGGAGGGGGCGG, the self-cleavage was 0.859.

Regarding AACACUGCCAAUGCCGGUCCCUAGCCCGGAUGAAAGUGGAGGGGGCGG, the self-cleavage was determined as 0.786.

Take AACACUGCCAAUGCCGGUCCCUAGCCCGGAUUAAAGUGGAGGGGGCGG: the self-cleavage is 0.71.

For AACACUGCCAAUGCCGGUCCCACGCCCGGAGAAAAGUGGAGGGGGCGG, the self-cleavage came out at 0.274.

As to AACACUGCCAAUGCCGGUCCCACGCCCGGAAAAAAGUGGAGGGGGCGG, the self-cleavage was found to be 0.363.

Consider AACACUGCCAAUGCCGGUCCCACGCCCGGACAAAAGUGGAGGGGGCGG, for which the self-cleavage worked out at 0.247.

As to AACACUGCCAAUGCCGGUCCCAGGCCCGGAUAAAAGUGGAGGGGGAGG, the self-cleavage is 0.328.

Consider AACACUGCCAAUGCCGGUCCCUAGCCCGGAUAGAAGUGGAGGGGGCGG, for which the self-cleavage was 0.888.

Regarding AACACUGCCAAUGCCGGUCCCUAGCCAGGAUAAAAGUGGAGGGGGCGG, the self-cleavage was found to be 0.159.

As for AACACUGCCAAUGCCGGUCCCUAGCCCGGAUAAAAGUGGAUGGGGCGG, the self-cleavage was determined as 0.137.

On to AACACUGCCAAUGCCGGUCCCACGCCCGGUUAAAAGUGGAGGGGGCGG, for which the self-cleavage worked out at 0.264.

Consider AACACUGCCAAUGCCGGUCCCACGCCCGGCUAAAAGUGGAGGGGGCGG, for which the self-cleavage is 0.116.

On to AACACUGCCAAUGCCGGUCCCACGCCCGGAUAAAUGUGGAGGGGGCGG, for which the self-cleavage came out at 0.404.

For AACACUGCCAAUGCCGGUCCCUAGCCCGGAGAAAAGUGGAGGGGGCGG, the self-cleavage stood at 0.833.

With AACACUGCCAAUGCCGGUCCCUAGCCCGGAAAAAAGUGGAGGGGGCGG, the self-cleavage was 0.521.

For AACACUGCCAAUGCCGGUCCCUAGGCCGGAUAAAAGUGGAGGGGGCGG, the self-cleavage was found to be 0.115.

AACACUGCCAAUGCCGGUCCCUAGACCGGAUAAAAGUGGAGGGGGCGG: the self-cleavage was 0.0894.

Take AACACUGCCAAUGCCGGUCCCACGCACGGAUAAAAGUGGAGGGGGCGG: the self-cleavage was 0.199.

Turning to AACACUGCCAAUGCCGGUCCCACGCGCGGAUAAAAGUGGAGGGGGCGG, the self-cleavage stood at 0.12.

On to AACACUGCCAAUGCCGGUCCCUAGCGCGGAUAAAAGUGGAGGGGGCGG, for which the self-cleavage turned out to be 0.0767.

AACACUGCCAAUGCCGGUCCCACGCCUGGAUAAAAGUGGAGGGGGCGG: the self-cleavage stood at 0.0937.

Turning to AACACUGCCAAUGCCGGUCCCUAGCCCGGAUAAAAGCGGAGGGGGCGG, the self-cleavage came out at 0.236.

With AACACUGCCAAUGCCGGUCCCUAGCCCGGAUAAAAGGGGAGGGGGCGG, the self-cleavage came to 0.554.

As for AACACUGCCAAUGCCGGUCCCACGCCCGGAUAAAACUGGAGGGGGCGG, the self-cleavage was found to be 0.102.

As to AACACUGCCAAUGCCGGUCCCACGCCCGGAUAAAAGUGGAAGGGGCGG, the self-cleavage is 0.138.

AACACUGCCAAUGCCGGUCCCACGCCCGGAUAAAAGUGGAUGGGGCGG: the self-cleavage amounted to 0.118.
